Substrate: OC[C@H]1O[C@@](CO)(O[C@H]2O[C@H](CO)[C@@H](O)[C@H](O)[C@H]2O)[C@@H](O)[C@@H]1O
Test: DNSA reducing sugar assay, initial rates, Lineweaver-Burk
Type: cell-based, Thermotoga maritima
Details: free (non-immobilized) heat-killed P. pastoris cells with periplasmic enzyme, 10-200 mM sucrose, 50 mM sodium acetate pH 5.5, 60 °C, cell-wall diffusion barrier

B1: BfrA (Thermotoga maritima β-fructosidase) (Thermotoga maritima MSB8) (protein)
chain: MFKPNYHFFPITGWMNDPNGLIFWKGKYHMFYQYNPRKPEWGNICWGHAVSDDLVHWRHLPVALYPDDETHGVFSGSAVEKDGKMFLVYTYYRDPTHNKGEKETQCVAMSENGLDFVKYDGNPVISKPPEEGTHAFRDPKVNRSNGEWRMVLGSGKDEKIGRVLLYTSDDLFHWKYEGVIFEDETTKEIECPDLVRIGEKDILIYSITSTNSVLFSMGELKEGKLNVEKRGLLDHGTDFYAAQTFFGTDRVVVIGWLQSWLRTGLYPTKREGWNGVMSLPRELYVENNELKVKPVDELLALRKRKVFETAKSGTFLLDVKENSYEIVCEFSGEIELRMGNESEEVVITKSRDELIVDTTRSGVSGGEVRKSTVEDEATNRIRAFLDSCSVEFFFNDSIAFSFRIHPENVYNILSVKSNQVKLEVFELENIWL
notes: secreted to periplasm of Pichia pastoris PpBfrA(4x); N-glycosylated, 58 and 53 kDa (51 kDa deglycosylated); assayed in heat-killed whole cells
- Km: 99 mM

From paper PMC4078364, “Complete sucrose hydrolysis by heat-killed recombinant Pichia pastoris cells entrapped in calcium alginate” (Microbial Cell Factories, 2014)
